Where two headings read alike, the source gives them in different places. Marks after values point to notes of the source that are not given here.
Columns and labels:
[1] = molecular target: T1, human CCK2R (A431-CCK2R cells) (Homo sapiens, UniProt P32239); design: method as in PMID 28462989; conditions: reference peptide, whole A431-CCK2R cells; cited from earlier work
T1 construct: expressed in transfected cells; host or cells: A431 human epidermoid carcinoma cells, stably transfected (plasmid pCR3.1); gift from Aloj
T1 sequence (P32239 1-447): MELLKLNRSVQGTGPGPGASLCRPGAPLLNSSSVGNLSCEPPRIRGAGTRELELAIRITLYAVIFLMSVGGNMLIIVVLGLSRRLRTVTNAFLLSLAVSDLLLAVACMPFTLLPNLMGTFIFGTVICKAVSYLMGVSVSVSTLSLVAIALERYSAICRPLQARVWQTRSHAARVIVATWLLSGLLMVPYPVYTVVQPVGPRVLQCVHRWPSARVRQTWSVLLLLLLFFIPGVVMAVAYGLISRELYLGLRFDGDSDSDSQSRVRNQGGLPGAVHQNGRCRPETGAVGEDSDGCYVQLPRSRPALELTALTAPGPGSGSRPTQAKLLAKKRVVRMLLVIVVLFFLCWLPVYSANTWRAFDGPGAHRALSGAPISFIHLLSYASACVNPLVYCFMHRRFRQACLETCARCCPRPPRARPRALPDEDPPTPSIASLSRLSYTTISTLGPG

[2] = type: physicochemical
Experimental: Aliquots (50 μL) of ^68Ga- and ^89Zr-labelled mono-, di-, and trimer (10 μM) were diluted in 450 μL PBS. After adding 500 μL octanol the mixture was vortexed with 1400 rpm (MS 3 basic vortexer, IKA, Staufen, Germany) for 15 min at RT followed by centrifugation for 2 min at 4500 rpm. Subsequently, 100 μL aliquots of the organic and the aqueous layer were collected and logD values were calculated using Excel (n = 3, six replicates) after gamma counter measurement.

[3] = tested on: A431-CCK2R/A431-mock tumour xenografted BALB/c nude mice; conditions: mouse, in vivo
Experimental: All animal experiments were conducted in compliance with the Austrian and Dutch animal protection laws and with approval of the Austrian Ministry of Science (BMWF-66.011/000604-II/3b/2012 and BMWFW-66.011/0049-WF/II/3b/2014). In vivo stability studies were conducted in 5-week-old female BALB/c mice (in-house breed, ZVTA Innsbruck, Dr. Hermann Dietrich). The biodistribution studies were performed using female 8−10-week-old athymic BALB/c nude mice (Charles River Laboratories, Sulzfeld, Germany). Tumour xenografts were induced by subcutaneous injection of 2 × 10^6 A431-CCK2R cells (receptor positive) in the right and the same amount of A431-mock (receptor negative) in the left flank. Tumours were allowed to grow until they had reached a volume of 0.3–0.6 cm^3. To evaluate the biodistribution profile nude mice (n = 4) were intravenously injected with either 1-2 MBq ^68Ga- or 0.3 MBq ^89Zr-labelled mono-, di-, and trimer (0.1–0.2 nmol). The animals were sacrificed by cervical dislocation after 1 h as well as 2 h and 4 h in case of ^68Ga- and ^89Zr-labelled trimer, followed by the collection of organs and tissue. The collected samples were measured in the gamma counter and the results were calculated as percentage of injected dose per gram tissue (% ID/g).

Question: For “DOTA-MG11: reference peptide: DOTA-conjugated minigastrin analogue MG11 (EAYGWMDF; synthetic human minigastrin analogue)”, which IC50 [1] is on record?
Answer: 9.5 ± 0.5 nM

Question: Which results are given for `CSCC[C@H](NC(=O)[C@H](Cc1c[nH]c2ccccc12)NC(=O)CNC(=O)[C@H](Cc1ccc(O)cc1)NC(=O)[C@H](C)NC(=O)[C@@H](CCC(=O)O)NC(=O)CCSC1CC(=O)N(CCC(=O)NC2CCCN(O)C(=O)C=C(C)CCOC(=O)C(NC(C)=O)CCCN(O)C(=O)C=C(C)CCOC(=O)C(NC(C)=O)CCCN(O)C(=O)C=C(C)CCOC2=O)C1=O)C(=O)N[C@@H](CC(=O)O)C(=O)N[C@@H](Cc1ccccc1)C(N)=O` (stereo partly shown) [^89Zr-labelled Monomer, metal not drawn]?
Answer: Distribution coefficient logD (pH 7.4) [2]: −3.17 ± 0.06; Tumour-to-organ ratio (T/O): A431-mock [3]: 7.5 ± 1.8; Tumour-to-organ ratio (T/O): Blood [3]: 9.0 ± 4.7^b; Tumour-to-organ ratio (T/O): Bone [3]: 4.7 ± 1.3^b; Tumour-to-organ ratio (T/O): Heart [3]: 14.8 ± 4.7^b; Tumour-to-organ ratio (T/O): Intestine [3]: 7.9 ± 2.3; Tumour-to-organ ratio (T/O): Kidneys [3]: 0.17 ± 0.03^b; Tumour-to-organ ratio (T/O): Liver [3]: 12.4 ± 2.8^b; Tumour-to-organ ratio (T/O): Lung [3]: 6.5 ± 1.6^b; Tumour-to-organ ratio (T/O): Muscle [3]: 15.9 ± 4.2^b; Tumour-to-organ ratio (T/O): Pancreas [3]: 13.3 ± 2.9^b; Tumour-to-organ ratio (T/O): Spleen [3]: 18.7 ± 6.1^b; Tumour-to-organ ratio (T/O): Stomach [3]: 4.9 ± 1.3^b; Biodistribution: A431-CCK2R tumour (receptor positive) ([3]; 1 h): 1.91 ± 0.40 % ID/g; Biodistribution: A431-mock tumour (receptor negative) ([3]; 1 h): 0.26 ± 0.05^ab % ID/g; Biodistribution: Blood ([3]; 1 h): 0.30 ± 0.19^ab % ID/g; Biodistribution: Bone ([3]; 1 h): 0.42 ± 0.10^ab % ID/g; Biodistribution: Heart ([3]; 1 h): 0.14 ± 0.05^ab % ID/g; Biodistribution: Intestine ([3]; 1 h): 0.27 ± 0.10^abd % ID/g; Biodistribution: Kidneys ([3]; 1 h): 11.3 ± 2.10^ab % ID/g; Biodistribution: Liver ([3]; 1 h): 0.16 ± 0.04^abd % ID/g; Biodistribution: Lung ([3]; 1 h): 0.31 ± 0.09^ab % ID/g; Biodistribution: Muscle ([3]; 1 h): 0.13 ± 0.04^ab % ID/g; Biodistribution: Pancreas ([3]; 1 h): 0.15 ± 0.04^abd % ID/g; Biodistribution: Spleen ([3]; 1 h): 0.12 ± 0.04^ab % ID/g; Biodistribution: Stomach ([3]; 1 h): 0.42 ± 0.14^abd % ID/g

Question: With `CSCC[C@H](NC(=O)[C@H](Cc1c[nH]c2ccccc12)NC(=O)CNC(=O)[C@H](Cc1ccc(O)cc1)NC(=O)[C@H](C)NC(=O)[C@@H](CCC(=O)O)NC(=O)CCSC1CC(=O)N(CCC(=O)NC2CCCN(O)C(=O)C=C(C)CCOC(=O)C(NC(=O)CCN3C(=O)CC(SCCC(=O)N[C@H](CCC(=O)O)C(=O)N[C@@H](C)C(=O)N[C@@H](Cc4ccc(O)cc4)C(=O)NCC(=O)N[C@@H](Cc4c[nH]c5ccccc45)C(=O)N[C@@H](CCSC)C(=O)N[C@@H](CC(=O)O)C(=O)N[C@@H](Cc4ccccc4)C(N)=O)C3=O)CCCN(O)C(=O)C=C(C)CCOC(=O)C(NC(=O)CCN3C(=O)CC(SCCC(=O)N[C@H](CCC(=O)O)C(=O)N[C@@H](C)C(=O)N[C@@H](Cc4ccc(O)cc4)C(=O)NCC(=O)N[C@@H](Cc4c[nH]c5ccccc45)C(=O)N[C@@H](CCSC)C(=O)N[C@@H](CC(=O)O)C(=O)N[C@@H](Cc4ccccc4)C(N)=O)C3=O)CCCN(O)C(=O)C=C(C)CCOC2=O)C1=O)C(=O)N[C@@H](CC(=O)O)C(=O)N[C@@H](Cc1ccccc1)C(N)=O` (stereo partly shown) [^68Ga-labelled Trimer, metal not drawn] as the molecule, how does the “Distribution coefficient logD (pH 7.4)” value [2] read?
Answer: −2.20 ± 0.07

Question: And the “Biodistribution: A431-CCK2R tumour (receptor positive)” value (“Biodistribution: A431-CCK2R tumour” below) ([3]; 1 h)?
Answer: 6.07 ± 1.56 % ID/g

Question: What about the “Biodistribution: A431-mock tumour (receptor negative)” value (from here on “Biodistribution: A431-mock tumour”) ([3]; 1 h) of the same molecule?
Answer: 2.17 ± 0.70^e % ID/g

Question: What about the “Biodistribution: Blood” value ([3]; 1 h) of the same molecule?
Answer: 3.70 ± 1.27 % ID/g

Question: What about the “Biodistribution: Bone” value ([3]; 1 h) of the same molecule?
Answer: 2.03 ± 0.88 % ID/g

Question: And the “Biodistribution: Heart” value ([3]; 1 h)?
Answer: 1.60 ± 0.28^e % ID/g

Question: And the “Biodistribution: Intestine” value ([3]; 1 h)?
Answer: 1.15 ± 0.28^e % ID/g

Question: What about the “Biodistribution: Kidneys” value ([3]; 1 h) of the same molecule?
Answer: 49.7 ± 10.1 % ID/g

Question: What about the “Biodistribution: Liver” value ([3]; 1 h) of the same molecule?
Answer: 3.71 ± 0.75 % ID/g

Question: What about the “Biodistribution: Lung” value ([3]; 1 h) of the same molecule?
Answer: 4.47 ± 1.50 % ID/g

Question: What about the “Biodistribution: Muscle” value ([3]; 1 h) of the same molecule?
Answer: 0.75 ± 0.15 % ID/g

Question: And the “Biodistribution: Pancreas” value ([3]; 1 h)?
Answer: 1.37 ± 0.26^e % ID/g

Question: What about the “Biodistribution: Spleen” value ([3]; 1 h) of the same molecule?
Answer: 2.15 ± 0.32^e % ID/g

Question: What about the “Biodistribution: Stomach” value ([3]; 1 h) of the same molecule?
Answer: 3.17 ± 0.54 % ID/g

Question: What about the “Biodistribution: A431-CCK2R tumour” value ([3]; 2 h) of the same molecule?
Answer: 8.73 ± 2.65^e % ID/g

Question: What about the “Biodistribution: A431-mock tumour” value ([3]; 2 h) of the same molecule?
Answer: 3.18 ± 0.51 % ID/g

Question: And the “Biodistribution: Blood” value ([3]; 2 h)?
Answer: 2.53 ± 0.67 % ID/g

Question: What about the “Biodistribution: Bone” value ([3]; 2 h) of the same molecule?
Answer: 2.52 ± 0.79 % ID/g

Question: And the “Biodistribution: Heart” value ([3]; 2 h)?
Answer: 2.18 ± 0.31 % ID/g

Question: And the “Biodistribution: Intestine” value ([3]; 2 h)?
Answer: 1.86 ± 0.33 % ID/g

Question: And the “Biodistribution: Kidneys” value ([3]; 2 h)?
Answer: 59.6 ± 4.3^f % ID/g

Question: What about the “Biodistribution: Liver” value ([3]; 2 h) of the same molecule?
Answer: 4.09 ± 0.85 % ID/g

Question: What about the “Biodistribution: Lung” value ([3]; 2 h) of the same molecule?
Answer: 5.78 ± 0.92 % ID/g

Question: What about the “Biodistribution: Muscle” value ([3]; 2 h) of the same molecule?
Answer: 0.65 ± 0.14 % ID/g

Question: What about the “Biodistribution: Pancreas” value ([3]; 2 h) of the same molecule?
Answer: 1.80 ± 0.31 % ID/g

Question: What about the “Biodistribution: Spleen” value ([3]; 2 h) of the same molecule?
Answer: 2.89 ± 0.53 % ID/g

Question: What about the “Biodistribution: Stomach” value ([3]; 2 h) of the same molecule?
Answer: 3.86 ± 1.36^f % ID/g

Question: What about the “Biodistribution: A431-CCK2R tumour” value ([3]; 4 h) of the same molecule?
Answer: 14.44 ± 3.40^f % ID/g

Question: What about the “Biodistribution: A431-mock tumour” value ([3]; 4 h) of the same molecule?
Answer: 2.16 ± 0.54 % ID/g

Question: And the “Biodistribution: Blood” value ([3]; 4 h)?
Answer: 1.76 ± 0.43 % ID/g

Question: What about the “Biodistribution: Bone” value ([3]; 4 h) of the same molecule?
Answer: 2.26 ± 0.41 % ID/g

Question: And the “Biodistribution: Heart” value ([3]; 4 h)?
Answer: 1.51 ± 0.33^f % ID/g

Question: And the “Biodistribution: Intestine” value ([3]; 4 h)?
Answer: 2.48 ± 0.59 % ID/g

Question: What about the “Biodistribution: Kidneys” value ([3]; 4 h) of the same molecule?
Answer: 172.1 ± 14.8 % ID/g

Question: And the “Biodistribution: Liver” value ([3]; 4 h)?
Answer: 6.01 ± 2.54 % ID/g

Question: What about the “Biodistribution: Lung” value ([3]; 4 h) of the same molecule?
Answer: 3.75 ± 0.84^f % ID/g

Question: And the “Biodistribution: Muscle” value ([3]; 4 h)?
Answer: 1.01 ± 0.37 % ID/g

Question: And the “Biodistribution: Pancreas” value ([3]; 4 h)?
Answer: 3.10 ± 1.13 % ID/g

Question: What about the “Biodistribution: Spleen” value ([3]; 4 h) of the same molecule?
Answer: 2.77 ± 0.78 % ID/g

Question: And the “Biodistribution: Stomach” value ([3]; 4 h)?
Answer: 13.6 ± 4.9 % ID/g

— publication PMC5914118, “Exploiting the Concept of Multivalency with ^68Ga- and ^89Zr-Labelled Fusarinine C-Minigastrin Bioconjugates for Targeting CCK2R Expression” (Contrast Media & Molecular Imaging, 2018)
